# Laboratory results reported in the nanobody polyreactivity screen of Harvey et al. (2022).
# Assay: yeast display, Sf9 membrane polyspecificity reagent, FACS + sequencing; frameworks hold sequencing errors
# In short: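 Using colony PCR, genes from sorted yeast display clones were amplified, then sequenced on MiSeq at 2 × 250 and filtered by CDR length. The clones had been stained with 10% biotinylated, detergent-solubilized Sf9 membrane reagent for 1 hour at 4 °C and sorted by FACS into low and high (top ~1%) gates on anti-HA and streptavidin fluorescence. Polyreactivity labels come from the gate of origin.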
row,Sequence,polyreactivity (PSR sort gate)
1,QVQLVESGGGLVQAGGSLRLTCAASGITFKYKAMGWYRQAPGKEWELVAAISKGGGSTYYADSVKGRFTISRDNAKNTVYLQMNSLKPEVTAVYYCNAVPRRPVVSDTNPVGYDYWGEGTQVTVSS,low polyreactivity
2,QVQLVESGGGLVQAGGSLRLTCAASGLIFVDNAMGWYRQAPGKERELVAAIDSGGSTNYADSVKGRFTISRDNAKNTVYLPMNSLKPEDTAVYYCAAEYVRFYWYTSDYWGQGTQVTVSS,low polyreactivity
3,QVQLVESGGGLVQAGGSLRLTCAASGLIFYAYAMGWYRPAPWKERELVAAITSGGDTNYADSVKGRFTISRDNAKNTVYLQMNSLKPEDTAVYYCNADPPVFQSVYWRWYHNYDYWGQGTQVTLSS,low polyreactivity
4,QVQLVESGGGLVQAGGSLRLTCAASGLIFYDNMGWYRQEPGKQRELVAAITVSGGATYYADSVKGRFTISRDNAKNTVYLQMNSLKTEDTAVFYCARELLSPTYQRWYYYWGQGTQVTVSS,low polyreactivity
5,QVQLVESGGGLVQAGGSLRLTCAASGLTFSYNAMGWYRQAPGKERELVAAITVSGGRTYYADSVKGRFTISRDNAKNTVYLQMNSLKPEDTAVYYCNADYDEGYYGYLRYDYDYWGQGTQVTVSS,high polyreactivity
6,QVQLVESGGGLVQAGGSLRLTCAASGNIFSTYAMGWYRQAPGKERELVASISENGGSTYYADSVKGRFSISRDNAKTTVYLQMNSLKPEHTAVYYCNKDYYYPNSWPKYVYWGQGTQVTLSS,low polyreactivity
7,QVQLVESGGGLVQAGGSLRLTCAASGNTFYQYAMGWYRQATGKERELVAAISSSGGSTYYADSVKGRFTISRDNAKNTVYLQMNSLKPEDTAVYYCATDKWYGYYYWGQGTQVTVSS,low polyreactivity
8,QVQLVESGGGLVQAGGSLRLTCAASGRIFGKYAKGRYRQAAGKEREFVATITRGGGTTSYADSVKGRFTNSRDNAMNTVYLQMNSLKPVDTAVYYCATRYFRGSYRNGDYWGQGTQVTVSS,high polyreactivity
9,QVQLVESGGGLVQAGGSLRLTCAASGRIFIGYAMGWYRQAPGKERELVAAISRNGDNTYYADSVKGRFTISRDNAKNTVYLQMISLKPEDSAVYYCAAVAYPRQWKLSYEDGSWGYDYWGQGTQVTVSS,low polyreactivity
10,QVQLVESGGGLVQAGGSLRLTCAASGRIFLYYTMGWYRQAPGKERELVAAITRSGGSTYYADSVKGRFTISRDNAKNTVYLQMNSLKPEDTAVYYCKRAYVRYVPMNYWGQGTQVTLSS,high polyreactivity
11,QVQLVESGGGLVQAGGSLRLTCAASGRIFPYMGWYRQAPGKERELVAAISSRGGNTYYADSVKGRFTISRDNAKNTVYLQMNSLKPEDTAVYYCNKVKYTWYDWGQGTQVTVSS,high polyreactivity
12,QVQLVESGGGLVQAGGSLRLTCAASGRIFTRYAMGWYRQAPGKERELVAAINYRGSSTYYADSVKGRFTISRDNAKNTVYLQMNSLKPEDTAVYYCNTYGQTDTYWRYYYWGQGTQVTVSS,high polyreactivity
13,QVQLVESGGGLVQAGGSLRLTCAASGRIFTRYMGWYRQAPGKERELVATINWSGGSTYYADSVKGRFTISRDNEKNTFYLQMNSLKPEDTAVYYCNARNVHFYYVQYNGAKIFDYWGQGTQVTVSS,low polyreactivity
14,QVQLVESGGGLVQAGGSLRLTCAASGRIFWGNAMGWYRQAPGKERDLVAAITSCDGTNYADSVKGRFTISRDNAKNTVYLQMNSLKPEDTAVYYCAARKYYYLQYTPRYDYWGQGTQVTVSS,low polyreactivity
15,QVQLVESGGGLVQAGGSLRLTCAASGRIFYDKSMGWYRQSPGKERELVAAIRRSGGDTYYADSVKGRFTISRDIAKNTVYLQMNSLKTVDTAVYYCADTYSDYGRRYGYWGQGTLVTVSS,high polyreactivity
16,QVQLVESGGGLVQAGGSLRLTCAASGRIFYGNALGWYRQAPGKERELVAAISSGGGSTYYADSVKGRFTISRDNAKNTVYLQLNSLKPEDTAVYYCAADPVHRFPGTGGFWGKGTQVTVSS,low polyreactivity

row,Sequence,polyreactivity (PSR sort gate)
1,QVQLVESGGGLVQAGGSLRLTCAASGRIFYLNAMGWYRQAPGKERELVAGLTNSTTGTYYADSVKGRFTISRDNAKNTVDLQMNSLKPEDTAVYYCNSDVAYEEPVETYDYWGQGTQVTVSS,low polyreactivity
2,QVQLVESGGGLVQAGGSLRLTCAASGRNFDYNARGWYRQAPGKEREFVAPISGRGGSTYYADSVKGRFTISRDNAKNRVYLQMNSLKPEDTAVYYCAADWRYRYSGRYDYWGQGTQVTVSS,high polyreactivity
3,QVQLVESGGGLVQAGGSLRLTCAASGRNFRAYAMGWYRQAPGKERELVAAISTSGGSTRYADSVKGRFTISRDNAKNTVYLQMNSLKPEDTAVYYCARYTTRTYEYNYWGQGTQVTVSS,high polyreactivity
4,QVQLVESGGGLVQAGGSLRLTCAASGRTFAGNAMGWYRQAPGKERELVAAIRRTGGRTYYADSVKGRFTISRDNAKNSVYLQRNSLKPEDTAVYYCYAVNKPYTREYGYDYWGKGTQVTVSS,high polyreactivity
5,QVQLVESGGGLVQAGGSLRLTCAASGRTFALYAMGWYRQAPGKERELVAGITGRGGTTHYADSVKGRFTISRDYAKNTVYLQMNSLKPEDTAVYYCATTQSWRVPYRRLGYWGQGTQVTVSS,low polyreactivity
6,QVQLVESGGGLVQAGGSLRLTCAASGRTFDQYAMGWYRQAPGKERDLVAAITSGGSTYYADSVKGRFTISRDNAKNTVYLQMNSLKPEDTAVYYCYTDSSFWGYYIAQVNERDYWGQGTQVTVSS,low polyreactivity
7,QVQLVESGGGLVQAGGSLRLTCAASGRTFGLNTMGWYRQAPGKERELVAAISRRGGSTYYADSVKGRFTISRDNAKNTVYLQMNSLKPEDTAVYYCARTSYNRYDYWGQGTQVTVSS,high polyreactivity
8,QVQLVESGGGLVQAGGSLRLTCAASGRTFHGNAMGWYRPAPGKERELVAAISYSGGRTYYADSVKGRFTISRDNAKNTVYLQMNSLKPEDTAVYYCAAWGSSYSFDYWGQGTQVTVSS,high polyreactivity
9,QVQLVESGGGLVQAGGSLRLTCAASGRTFKYYAMGWYRQAPGKERELVAAITRSGGNTYYADSVKGRFTISRDNAKNTVYLQMNSLKPEDTAVYYCAKRLGYRYPTYDYWGQGTQVSVSS,high polyreactivity
10,QVQLVESGGGLVQAGGSLRLTCAASGRTFRIYAMGWYRQAPAKERELVAAIRWSGGTTYYADSVKGRFTISRDNTNNSVYLQMNSLKPEDTAVYYCNKARLGWSYRQDDYWGQGTQVTVSS,high polyreactivity
11,QVQLVESGGGLVQAGGSLRLTCAASGRTFRYYVMGWYRQAPGKERELVASITSDATYYADSVKGRFTISRDNAKNTVYLQLNSLKPEDTAVYYCAKRYPYRHRTYNPVAYDYWGQGTQVTVSS,high polyreactivity
12,QVQLVESGGGLVQAGGSLRLTCAASGRTFTLNSMGWYRQAPGKERELVAAIRRGGSTYYADSVKGRFTISRDNAKNTVYLQMNSLKPVDTAVYYCAAYKGSYGGYRMQYSYNYWGQGTQVTVSS,high polyreactivity
13,QVQLVESGGGLVQAGGSLRLTCAASGRTFTVYAMGGYRQAPGKEREFVAAITERGGSTYYADSVKGRFTISRDNAKNTVYLQMNSLKPEDTAVYYCAAVYYWRPGWYVRFDYWGQGTQVTVSS,low polyreactivity
14,QVQLVESGGGLVQAGGSLRLTCAASGRTFWYYAMGWYRQAPGKERELVAASYYSGDGTYYADSVKGRFTISRDNAKNTVYLQMTSLKPEDTALYYGAAEWSDPTLPTAWSEYEYWGQGTHVTVSS,high polyreactivity
15,QVQLVESGGGLVQAGGSLRLTCAASGRTFYIYAMGWYRPAPGKERQLVAAITYGGGRTFYADSVKGRFTISRYNAKNTVYLQMNSLKPEDTAVYYCGATVRGKRSTYDYWGQGTQVTVSS,high polyreactivity
